Data: the supplement of paper PMC10724198
± gives the standard deviation of the averaged measurements.

test system: Saccharomyces cerevisiae; experiment: protein stability index of tFT-peptide fusion (C-terminal peptide) (PSI (0-1 scale)); higher = more stable (slower turnover); settings: genetic background: wild type; temperature: 30 C
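Further: PSI is a weighted mean of sequencing reads over stability bins, variants kept only with over 10 reads, mCherry proximal and sfGFP distal, peptide attached via GGGS linker.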

| Sequence | protein stability index |
| --- | --- |
| SAKGGVLLIGLF | 0.603 ± 0.2 |
| SALRGTDMREEV | 0.632 ± 0.023 |
| SAPFGFLFFARL | 0.815 ± 0.083 |
| SAPLRHTSSSPS | 0.697 ± 0.043 |
| SAPPSPPLPPPC | 0.677 ± 0.067 |
| SAPRDLYIHFSR | 0.7371 ± 0.0014 |
| SARGRTRTADPS | 0.677 ± 0.048 |
| SARRFPPPPSSS | 0.702 ± 0.046 |
| SASSESTFLRAR | 0.641 ± 0.012 |
| SATALTANHPKM | 0.677 ± 0.0096 |
| SCITFGGWLGGM | 0.709 ± 0.13 |
| SCLCIHEIFLRL | 0.672 ± 0.016 |
| SCLWRGHDTVWL | 0.662 ± 0.098 |
| SCSFLISLLLLP | 0.525 ± 0.023 |
| SCTGGLVSVRGV | 0.666 ± 0.023 |
| SCVNGYSVCMCW | 0.524 ± 0.046 |
| SCWVLPFHYGSG | 0.714 ± 0.026 |
| SDDTIQNQICPG | 0.66 ± 0.059 |
| SDIHSSMTSGSF | 0.669 ± 0.014 |
| SDLKARYHCGRD | 0.652 ± 0.075 |
| SDPASVIPMELE | 0.673 ± 0.052 |
| SDRLLYLGNYDV | 0.773 ± 0.0011 |
| SDTPTHVLGPPY | 0.716 ± 0.038 |

| Sequence | protein stability index |
| --- | --- |
| SEKKKKNKKNKK | 0.714 ± 0.2 |
| SELTCSSINSAT | 0.673 ± 0.024 |
| SENVSATLNNQD | 0.708 ± 0.028 |
| SEPCSASLSVSL | 0.64 ± 0.045 |
| SEPPFSFLNVSP | 0.676 ± 0.018 |
| SEVPCENSRRVV | 0.667 ± 0.08 |
| SFFFFSPFSRLS | 0.693 ± 0.032 |
| SFFFLVPFSVFL | 0.586 ± 0.1 |
| SFFLMTPPPSLR | 0.698 ± 0.12 |
| SFGLAPLSSFFC | 0.705 ± 0.078 |
| SFGLSYYFRNSL | 0.731 ± 0.066 |
| SFLHSRAELPAG | 0.604 ± 0.065 |
| SFLIADLPSTPP | 0.763 ± 0.13 |
| SFLSPPSPPHSP | 0.639 ± 0.01 |
| SFPLPPLSPPSR | 0.73 ± 0.048 |
| SFPPPFLISLSP | 0.676 ± 0.042 |
| SFPPPHPPPPLP | 0.6998 ± 0.0045 |
| SFPPSPLPPPPR | 0.586 ± 0.018 |
| SFRVLCHGAQLL | 0.634 ± 0.065 |
| SFSRFFAIRPSF | 0.723 ± 0.091 |
| SFTSGFTDAGNI | 0.6008 ± 0.0047 |
| SFYSAALSCVFI | 0.737 ± 0.15 |
| SGACRLEESGKV | 0.755 ± 0.061 |

| Sequence | protein stability index |
| --- | --- |
| SGGCDNGRMRWV | 0.682 ± 0.07 |
| SGGGGVLGWRGG | 0.682 ± 0.022 |
| SGGGVGGQVAVG | 0.715 ± 0.087 |
| SGGPDCLSMSGL | 0.694 ± 0.025 |
| SGGRSPYLLVGL | 0.725 ± 0.053 |
| SGGRVSGLVGEE | 0.673 ± 0.031 |
| SGGSALGCGRAA | 0.658 ± 0.063 |
| SGGVWWGRGRVS | 0.727 ± 0.058 |
| SGGWGGGDCVGA | 0.69 ± 0.014 |
| SGGWLAACYAVY | 0.668 ± 0.032 |
| SGKFVGCSFWMG | 0.62 ± 0.016 |
| SGLGRPHLRCLD | 0.672 ± 0.042 |
| SGLPPYTPPLSF | 0.80558 ± 0.00056 |
| SGLRFLSWSVHV | 0.6114 ± 0.0051 |
| SGLSPPSRVCGY | 0.651 ± 0.068 |
| SGLWAGVDGRSS | 0.6855 ± 0.0021 |
| SGMGAIADENKE | 0.635 ± 0.051 |
| SGNDIQSLNIVI | 0.754 ± 0.081 |
| SGPSWSGGGWGR | 0.648 ± 0.021 |
| SGRSRVAGVERR | 0.708 ± 0.062 |
| SGSITAGLVRNV | 0.6152 ± 0.0051 |
| SGSSRLRTSPTG | 0.814 ± 0.056 |
| SGTGRINWEGFL | 0.709 ± 0.03 |

| Sequence | protein stability index |
| --- | --- |
| SGVLRLSGTGAV | 0.688 ± 0.0018 |
| SGVSCPGRVDGG | 0.68 ± 0.0085 |
| SGVSRSGREFRN | 0.634 ± 0.088 |
| SGWRGVVGRGGR | 0.625 ± 0.027 |
| SHDLASRQSAFR | 0.648 ± 0.059 |
| SHFHSRDARRSP | 0.673 ± 0.0068 |
| SHKPDLTNVRFV | 0.707 ± 0.044 |
| SHLAHLHPHIAR | 0.675 ± 0.026 |
| SHLGTITPSSLL | 0.662 ± 0.082 |
| SHPWLLDCVTTF | 0.706 ± 0.044 |
| SHRSALLPFLPP | 0.646 ± 0.046 |
| SHSPAPSFPYFP | 0.7367 ± 0.0026 |
| SHSRRRTPSVTP | 0.713 ± 0.083 |
| SHTRPRPPLHLP | 0.68 ± 0.038 |
| SIDKINKLTPDV | 0.648 ± 0.052 |
| SIIATHNNNSIW | 0.694 ± 0.014 |
| SILRRFSPPPLL | 0.75 ± 0.051 |
| SISLVLPASCIT | 0.693 ± 0.021 |
| SISQSSSLGLED | 0.677 ± 0.046 |
| SISSFLPRRLPF | 0.662 ± 0.033 |
| SIVRWLTSSLIH | 0.787 ± 0.17 |
| SIVSTPGATACL | 0.67281 ± 0.00029 |
| SIYLLQRRQFDP | 0.677 ± 0.048 |

| Sequence | protein stability index |
| --- | --- |
| SKGSVFGNMGYR | 0.6741 ± 0.0063 |
| SKIQDHLNTAPE | 0.654 ± 0.058 |
| SKKLSMNIIITN | 0.653 ± 0.0047 |
| SKKRHSKNRKSV | 0.71 ± 0.032 |
| SKNEIKNYNTKI | 0.642 ± 0.031 |
| SKNQEDEYTIHE | 0.7 ± 0.024 |
| SKNQQKKCQMIT | 0.534 ± 0.038 |
| SKRIKIEFYVNQ | 0.688 ± 0.12 |
| SKSLRAAQGGRT | 0.684 ± 0.016 |
| SKYVVQSENITG | 0.699 ± 0.015 |
| SLALPLLPPSSP | 0.739 ± 0.05 |
| SLALSPQFLSFP | 0.749 ± 0.081 |
| SLAPSARLYPYH | 0.768 ± 0.03 |
| SLARGFVVPMWP | 0.707 ± 0.045 |
| SLCPVTPPSVGF | 0.656 ± 0.02 |
| SLDFRSARFSLG | 0.65 ± 0.014 |
| SLDQGRLRRLVG | 0.641 ± 0.061 |
| SLEALARDRFCT | 0.724 ± 0.014 |
| SLESRGLRSRHY | 0.633 ± 0.073 |
| SLFLLFRSRACS | 0.539 ± 0.011 |
| SLFMRLPLQSSF | 0.65 ± 0.041 |
| SLGFMALFYLPL | 0.649 ± 0.016 |
| SLGWVRDRICSD | 0.75 ± 0.17 |

| Sequence | protein stability index |
| --- | --- |
| SLISRAFYSFSP | 0.699 ± 0.04 |
| SLLFPPSPPPPA | 0.673 ± 0.011 |
| SLLLFPCPWFGL | 0.677 ± 0.019 |
| SLLLPPRPPPRV | 0.744 ± 0.055 |
| SLLPPSPPPSRL | 0.724 ± 0.066 |
| SLLPSSFRAPAP | 0.652 ± 0.045 |
| SLLQSLPSPPPP | 0.639 ± 0.011 |
| SLNQWTGTTLRQ | 0.66 ± 0.02 |
| SLPAFLPAPPLF | 0.6962 ± 0.002 |
| SLPAPPPPPPPH | 0.727 ± 0.034 |
| SLPDTSPSLHPP | 0.59 ± 0.011 |
| SLPPLASPPASI | 0.72 ± 0.1 |
| SLPPPLPRRPPP | 0.729 ± 0.13 |
| SLPPRPCPSHLH | 0.786 ± 0.081 |
| SLPRWLPPPLQS | 0.687 ± 0.0095 |
| SLPSLLFLISLP | 0.543 ± 0.054 |
| SLPSRPLSFYSP | 0.715 ± 0.068 |
| SLPWVLLPTGPY | 0.751 ± 0.075 |
| SLQTHCHKGPLS | 0.718 ± 0.0099 |
| SLRLMTFPPLLL | 0.68 ± 0.08 |
| SLRPPLRPPTVV | 0.601 ± 0.017 |
| SLSAPPPRSTSP | 0.597 ± 0.021 |
| SLSFSLPLFSLG | 0.681 ± 0.013 |

| Sequence | protein stability index |
| --- | --- |
| SLSPARKDSSLP | 0.683 ± 0.15 |
| SLSPPSPTPSHS | 0.7347 ± 0.0043 |
| SLSSAALFHGPF | 0.598 ± 0.065 |
| SLSSPILYLFAS | 0.65 ± 0.013 |
| SLTCRKQTVRVI | 0.53 ± 0.012 |
| SLVSYSPPLPPP | 0.681 ± 0.034 |
| SLWGFWRVVGRR | 0.594 ± 0.052 |
| SLYRSAARHLGI | 0.754 ± 0.037 |
| SMFGSVGLMPCG | 0.656 ± 0.02 |
| SMLLFFLPSSSS | 0.641 ± 0.046 |
| SMLVPLPPFSSA | 0.694 ± 0.0097 |
| SMRLELAALLVI | 0.546 ± 0.033 |
| SMVLRTIKKRNI | 0.661 ± 0.015 |
| SNKKRTRNEGKD | 0.6109 ± 0.0047 |
| SNNKSIRKGVSI | 0.79002 ± 6.2e-05 |
| SNQKGQIYYEPS | 0.706 ± 0.08 |
| SNQRQRETKREE | 0.677 ± 0.039 |
| SNRSVININIRI | 0.616 ± 0.058 |
| SPACFKIFCRCF | 0.523 ± 0.046 |
| SPAFSLIPCPLF | 0.742 ± 0.059 |
| SPATDRTSLFES | 0.729 ± 0.022 |
| SPCPPPPAHPPR | 0.728 ± 0.026 |
